Like-named read-outs stand apart in the source and are kept apart here.

Experiment in all cases: SPR (Biacore 3000), G-CSFR amine-coupled to CM5 chip, 1:1 Langmuir fit
For orientation: Surface plasmon resonance follows binding to a sensor surface in real time, without labels.

Test [1] concerns the target G-CSF receptor G-CSFR (R & D company, Item No. 381GR/CF) (UniProt Q99062).
In test [2] the target is T1, G-CSF receptor G-CSFR (R & D company, Item No. 381GR/CF) (UniProt Q99062 25-621, limits assumed).
T1 construct: Bought reagent, amine-coupled to a CM5 chip; also called the receptor
T1 sequence (looked up): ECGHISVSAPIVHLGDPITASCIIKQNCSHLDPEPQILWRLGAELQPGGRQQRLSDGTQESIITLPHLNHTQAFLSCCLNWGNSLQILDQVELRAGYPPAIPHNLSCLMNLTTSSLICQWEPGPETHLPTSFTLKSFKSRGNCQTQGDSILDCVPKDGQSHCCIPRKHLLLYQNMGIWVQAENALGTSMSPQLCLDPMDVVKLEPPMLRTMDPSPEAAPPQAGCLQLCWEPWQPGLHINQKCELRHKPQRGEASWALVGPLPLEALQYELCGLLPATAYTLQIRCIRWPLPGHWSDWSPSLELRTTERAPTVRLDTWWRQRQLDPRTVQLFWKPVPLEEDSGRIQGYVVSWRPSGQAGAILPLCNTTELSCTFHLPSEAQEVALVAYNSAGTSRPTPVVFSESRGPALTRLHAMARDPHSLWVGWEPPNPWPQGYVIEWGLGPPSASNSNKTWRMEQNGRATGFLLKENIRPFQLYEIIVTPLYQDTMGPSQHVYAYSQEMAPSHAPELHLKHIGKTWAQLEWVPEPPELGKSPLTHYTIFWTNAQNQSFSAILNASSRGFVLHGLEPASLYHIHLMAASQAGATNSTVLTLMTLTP
As to the method:
(§1) The receptor G-CSFR (R & D company, Item No. 381GR/CF) was coupled to FC₄ cell of a CM5 chip by using an amine coupling method in Biacore® 3000 control software Wizard. HBS-P buffer (10 mM HEPES, 150 mM NaCl, and 0.005% (v/v) surfactant P20, pH 7.4) was used as the working buffer, and 1 mg/mL of G-CSFR was diluted with 10 mM NaAC (pH 4.5) to a final concentration of 20 μg/mL. A 1:1 mixture of 0.2 M EDC and 50 mM NHS was injected by flowing through the surface of the chip at a rate of 10 μL/min, G-CSFR solution was injected, then 1 M ethanolamine (pH 8.5) was injected for 7 min to block the activated chip surface.
(§2) rHSA/mG-CSF and G-CSF standards were quantitatively diluted with a HBS-P buffer, and a kinetic test was conducted following a kinetic analysis Wizard in Biacore® 3000 control software. All the samples were injected at the flow rate of 30 μL/min, and the injection time of 3 min. After 5 min of disassociation, 50 mM NaOH, 1 M NaCL, and HBS-P buffer were respectively injected for 15 s and 60 s at a flow rate of 100 μL/min for regeneration. The obtained data was fitted using a 1:1 Langmuir binding model in Biacore 3000 analysis software, to obtain exact kinetic constants: […]

For test [3], the target named is T1, G-CSF receptor G-CSFR (R & D company, …). The method, then: as §1, §2
The source holds these as a separate data set.

For the molecule “rHSA/G-CSF mutant L19I (from UniProt P09919 31-207) (ligand)”, in test [1], the Kd was found to be 11.2 nM.
For “recombinant human serum albumin-granulocyte-colony stimulating factor fusion protein (rHSA/G-CSF) (ligand)”, the Kd in test [1] amounted to 1.3 nM.

B1: human granulocyte-colony stimulating factor (G-CSF) (ligand)
chain: TPLGPASSLPQSFLLKCLEQVRKIQGDGAALQEKLCATYKLCHPEELVLLGHSLGIPWAPLSSCPSQALQLAGCLSQLHSGLFLYQGLLQALEGISPELGPTLDTLQLDVADFATTIWQQMEELGMAPALQPTQGAMPAFASAFQRRAGGVLVASHLQSFLEVSYRVLRHLAQP
notes: also called G-CSF standards
Consider B1, for which the Kd in test [2] and in test [3] was 0.3 nM each time.

What is called Kd is a measure of binding affinity in units of concentration.

The record behind these values is patent publication US20130164251A1 (JIANGSU T MAB BIOPHARMA, published 2013).
